B1: HC-15 (antibody, V domains shown)
VH: EVQLQQSGPELVKPGASVKISCKASGYSFTGYYMHWVKQSPEKRLEWIGEINPRTGITTYNQKFKAKATLTVDKSSSTAYMQLKSLTSEDSAVYYCARVGSSGPFTYWGQGTLVTVSA
VL: DIVMTQSPSSLSVSAGDKVTMSCKSSQSLLNSRNQKNYLAWYQQKPWQPPKLLIYGASTRESGVPDRFTGSGSGTDFTLTISSVQAEDLAVYYCQNDYSYPFTFGTGTKLEIK
B2: HE-39 (antibody, V domains shown)
VH: EVQLQQSGPELMKPGASVKMSCKASGYIFTDYYMNWVKQSHGKSLEWIGRVNPNNGGTSYSQKFKDKATLTVDKSLNTAYMQVNSLTSEDSAVYYCARIYYGGSDWGQGTTLTVSS
VL: EIVMTQTPLSLSVTIGQPASISCKSSQSLLYTTGKTYLNWLQQRPGQAPKHLMYQVSKLVPGIPDRFSGSGSETDFTLKISRVEAEDLGVYYCLQGTYYPHTFGSGTKLEIK

Columns and labels:
[1] = target: T1, active-form HB-EGF protein (R&D Systems, Inc., 259-HE) (human, UniProt Q99075 63-148); assay: cell-based or functional assay
T1 sequence (Q99075 63-148 limits assumed): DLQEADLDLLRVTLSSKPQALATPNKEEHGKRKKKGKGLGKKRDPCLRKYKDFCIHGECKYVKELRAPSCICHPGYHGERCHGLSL

[2] = target: T1, active-form HB-EGF protein (R&D …); assay: competition ELISA: inhibition of HB-EGF (50 ng/mL) binding to immobilised EGFR-Fc
[3] = target: T1, active-form HB-EGF protein (R&D …); assay: ELISA, purified antibody on plate coated with 1 µg/mL HB-EGF; given as ED50
[4] = target: T1, active-form HB-EGF protein (R&D …); assay: cell-based or functional assay; remark: listed apart in the source
[5] = target: T1, active-form HB-EGF protein (R&D …); assay: ELISA, purified antibody on plate coated with 1 µg/mL HB-EGF; printed as ED50 (antibody concentration that gave 50% binding)

Binder | Inhibition of HB-EGF-dependent growth (EC50, nmol/L) [1] [nmol/L] | EC50 [2] [nM] | EC50 [3] [nM] | EC50 (nM), growth-inhibiting effect on EGFR_Ba/F3 cells [4] [nM] | EC50 [5] [nM]
B1 | 2.06 | 0.52 | 0.65 | 3.8 | 0.2
B2 | 0.83 | 0.86 | 0.016 | – | –

— patent publication US20100266502A1 (Chugai, published 2010)
